The text below walks through data of article PMC9477737, “Structural insights into auxin recognition and efflux by Arabidopsis PIN1” (Nature, 2022).

Series [1] deals with T1, Arabidopsis thaliana PIN1 (PIN-FORMED 1 auxin transporter), full length, N-terminal Flag tag (A. thaliana, UniProt Q9C6B8).
T1 construct: PIN1, Arabidopsis thaliana, UniProt Q9C6B8, full length; most of the hydrophilic loop is not visible in the cryo-EM map; Forms a homodimer in the cryo-EM structures; A monomeric class was also seen in the apo sample; also called AtPIN1; WT PIN1
The series can be described thus: cryo-EM structure; purified PIN1 and sybody-21 mixed at a molar ratio of ~1:3, gel filtration in 25 mM HEPES pH 7.4, 150 mM NaCl, 0.02% GDN; apo, IAA-bound (10 mM IAA) and NPA-bound (100 uM NPA) samples. Particulars: both partners purified.

Series [2] deals with the molecule itself. The description is as above.

B1: Sybody-21 (synthetic nanobody selected against PIN1) (VHH)
VHH: QVQLVESGGGLVQAGGSLRLSCAASGFPVNISWMEWYRQVPGKEREWVAAIQSTGSYTWYADSVKGRFTISRDNAKNTVYLQMNSLKPEDTAVYYCRVKVGAYYRGQGTQVTVSA
notes: Selected by ribosome display and phage display from the Concave, Loop or Convex sybody libraries; The BLI methods speak of a His-tagged sybody; How the purified Sybody-21 was made is not described; also called the sybody
For the molecule B1, the binding result in series [1] was “binds”.

B2: Arabidopsis thaliana PIN1 (PIN-FORMED 1 auxin transporter), full length, N-terminal Flag tag (natural protein, A. thaliana, UniProt Q9C6B8 1-622, looked up)
chain: MITAADFYHVMTAMVPLYVAMILAYGSVKWWKIFTPDQCSGINRFVALFAVPLLSFHFIAANNPYAMNLRFLAADSLQKVIVLSLLFLWCKLSRNGSLDWTITLFSLSTLPNTLVMGIPLLKGMYGNFSGDLMVQIVVLQCIIWYTLMLFLFEYRGAKLLISEQFPDTAGSIVSIHVDSDIMSLDGRQPLETEAEIKEDGKLHVTVRRSNASRSDIYSRRSQGLSATPRPSNLTNAEIYSLQSSRNPTPRGSSFNHTDFYSMMASGGGRNSNFGPGEAVFGSKGPTPRPSNYEEDGGPAKPTAAGTAAGAGRFHYQSGGSGGGGGAHYPAPNPGMFSPNTGGGGGTAAKGNAPVVGGKRQDGNGRDLHMFVWSSSASPVSDVFGGGGGNHHADYSTATNDHQKDVKISVPQGNSNDNQYVEREEFSFGNKDDDSKVLATDGGNNISNKTTQAKVMPPTSVMTRLILIMVWRKLIRNPNSYSSLFGITWSLISFKWNIEMPALIAKSISILSDAGLGMAMFSLGLFMALNPRIIACGNRRAAFAAAMRFVVGPAVMLVASYAVGLRGVLLHVAIIQAALPQGIVPFVFAKEYNVHPDILSTAVIFGMLIALPITLLYYILLGL
notes: PIN1, Arabidopsis thaliana, UniProt Q9C6B8, full length; most of the hydrophilic loop is not visible in the cryo-EM map; Forms a homodimer in the cryo-EM structures; A monomeric class was also seen in the apo sample; also called AtPIN1; WT PIN1
In the case of B2, the “stoichiometry N” value in series [2] was 2.
